Experimental findings from the supplement of paper PMC12042874 are described below.

A short description of this data set: amyloid nucleation score (Sup35N fusion, yeast selection) (log enrichment); library NNK3; higher = more nucleation; inactive = no reads after selection. The essentials:
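Sup35N fusions to peptides of 20 random codons were expressed in psi-negative yeast, induced 24 hours with 100 μM copper sulfate, and grown 7 days at 30°C on medium lacking adenine and uracil. Input and output plasmid inserts were sequenced by Illumina. The nucleation score is the DiMSum log enrichment of output over input reads, centred on the mode score of non-aggregating sequences. Sequences with under 100 input reads were excluded.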

± gives the uncertainty stated by the source.

As for FLMCVNFVCCIIMCCGTIWG, the amyloid nucleation score entry was “inactive”.
For WNPCVHTLGI, the amyloid nucleation score entry is “inactive”.
In the case of KGYRINSNFNKFNKPLCSAI, the amyloid nucleation score result was “inactive”.
Take IVYMAATKLMVVNSLCNGRG: the amyloid nucleation score came out at 2.04 ± 0.09.
The same measure for GIAGCKSRSCLLPYCNWVSV: “inactive”; for LCVMCCATSFSHVCILIYRI: “inactive”.
The entry for SSWDGLKRL is “inactive”; for KRASMPVPGSSWLHQFKE it is “inactive”.
As for IEHSQYPAQAKPRLGSCLVL, the amyloid nucleation score result is “inactive”.
VNFRIKAIVVSLRGYDWLSG: the amyloid nucleation score came out at 0.287 ± 0.67.
The entry for ECLKPCSSNCTNRPTARPQC is “inactive”.
As to RFFAIL, the amyloid nucleation score result is “inactive”.
The entry for VMGVPST is “inactive”.
For RVARMFGEY, the amyloid nucleation score entry is “inactive”.
SFSWLTFPRGSDNFQDWHCI had an amyloid nucleation score of 0.56 ± 0.31.
The same measure for HSRTMVLMCIAMIRVLGYGF: “inactive”; for SRTGVC: -0.227 ± 1.5; for AQALRSVPEVWGEFTRSS: “inactive”.
The entry for AVTYNGYDHYYRDVARHCLR is “inactive”; for PNNSIHQIICYIWNEYTWSC it is 2.55 ± 0.059; for SRLNFVLVSMQD it is “inactive”.
In the case of GSFTASFDGFQGSIMVERGG, the amyloid nucleation score result is “inactive”.
As to SSVVGMSGLG, the amyloid nucleation score result is “inactive”.
Take QCKGCFSPVFKSCFICR: the amyloid nucleation score result was “inactive”.
In turn, GGPSYSLSLWLSKVSCLQGG yielded an amyloid nucleation score of 0.63 ± 0.34.
RYLDQLI: the amyloid nucleation score result was “inactive”.
Take TNKASLFSPAEHIYGKS: the amyloid nucleation score result is “inactive”.
IFVVSNFISSSMNYRSYCYL: the amyloid nucleation score entry was “inactive”.
On to CTNCNAKAYPWGTVSMPREW, for which the amyloid nucleation score result is “inactive”.
Take DISFLSRSRYRKSHGVVNFS: the amyloid nucleation score stood at 0.206 ± 0.43.
The entry for CYPVSVQYNGV is “inactive”; for KPWMVEAPFERA it is “inactive”; for WSNTFVWLSINLSYIV it is “inactive”.
As to DGKQVRGPGVAQSGANNGLE, the amyloid nucleation score entry was “inactive”.
On to DLIVILLTSYMYENVVVLNF, for which the amyloid nucleation score result was “inactive”.
The same measure for SIWSALSDLLLSKREE: “inactive”; for RSEPIKVVWVSISQPMDFFC: 2.13 ± 0.077.
With LGEWYWYYFFRARR, the amyloid nucleation score entry is “inactive”.
The same measure for VFYIIW: 1.89 ± 0.063.
The substance FLFIGSFCGCSVSRPDRYYS returned an amyloid nucleation score of 2.57 ± 0.08.
Regarding RGTKAYMGVVCSTPTIFCPN, the amyloid nucleation score entry is “inactive”.
The entry for VCGILRIIILGLMYVEALGW is “inactive”; for TSMSGDVHVVYVVVEHVKPP it is 2.46 ± 0.089; for FKTFSFFKLFCTYCYYTLTE it is “inactive”.
The figure for CMVCYLLPGSVSTCSCVRGI is 2.75 ± 0.064; for FNDSLSLTVTRVIF it is “inactive”.
Take TMYSLD: the amyloid nucleation score entry was “inactive”.
The entry for RSMQFGVIYAYYHRMAG is “inactive”; for ANPFFSLDK it is “inactive”; for PWHLIIDLQGWIFLVYEIGQ it is “inactive”.
Substance RRGRPVLCRLHPGRWLRSRR displayed an amyloid nucleation score of -0.401 ± 1.8.
The same measure for CYSGCEWSTYMLMGVLKVVS: “inactive”.
On to LAKHSFSFGVYCNSRNSVMY, for which the amyloid nucleation score result was “inactive”.
Turning to HLACLRV, the amyloid nucleation score entry was “inactive”.
Substance FRGEMLFKVQF gave an amyloid nucleation score of 0.275 ± 0.27.
Take FGFRCWLFWS: the amyloid nucleation score entry is “inactive”.
Take KYVVSYLGFKFGWKHYSKYY: the amyloid nucleation score result was “inactive”.
Take RKLGLEYGITMSCASLLALR: the amyloid nucleation score result was “inactive”.
Regarding YNNCYRCEN, the amyloid nucleation score result was “inactive”.
Substance VNTFVFTGFCMYSFVMSWLN had an amyloid nucleation score of 0.525 ± 0.2.
LFRHLVNRLNLTSTAKYHGF: the amyloid nucleation score result was “inactive”.
FKYLVIVNNWG displayed an amyloid nucleation score of 2.82 ± 0.071.
Turning to GTITPRYRYVIEVSSMKRYW, the amyloid nucleation score result was “inactive”.
The entry for WLDWSAGHCGYVKLLW is “inactive”; for YQSGTLWCQCIWFKMRWRVH it is “inactive”; for YVRWCQWYGETDGPCCRNTV it is “inactive”.
The same measure for TNITWYTRVLNGLYYTM: “inactive”; for MCSETWIYALSICDNLCRD: 1.29 ± 0.16; for PHFQTFRDYVLCGISFSYCE: 1.46 ± 0.1.
With GTCKS, the amyloid nucleation score entry was “inactive”.
The same measure for LIRTIEYLGRRISSQGCLHT: “inactive”; for HINARRLYFTYV: “inactive”; for VYVSYGTFWMSKVWWCDKPG: “inactive”.
As for VNSLNHYYLIPCARFEPEG, the amyloid nucleation score entry is “inactive”.
The figure for RSWLLSSEFVVVIFSNTEGM is 1.24 ± 0.16; for VSYGTCH it is “inactive”.
The entry for WTKSFSSNSTQVSQYYSFNL is “inactive”; for DTWMST it is “inactive”.
For the substance AELSIADPTEMSGRVFACNV, the amyloid nucleation score entry is “inactive”.
Take PGCTTN: the amyloid nucleation score entry was “inactive”.
As to HPMRGDVGSRAVFRMGHFIH, the amyloid nucleation score entry was “inactive”.
For the substance SSDILASFGCYSNFHLSHII, the amyloid nucleation score result was “inactive”.
For VFDGWGLFRLSTICMCLQRH, the amyloid nucleation score result is “inactive”.
Take SGLFWRTLEPLNSVDRFYG: the amyloid nucleation score entry was “inactive”.
Consider SFYYLVKLYSLSSSIRLFRS, for which the amyloid nucleation score result is “inactive”.
Substance FTSFSYYMVCFCADIIKQG yielded an amyloid nucleation score of 1.97 ± 0.065.
The same measure for SDGSCRVRAFYSYKGALVSF: “inactive”; for HNLMYDRYP: “inactive”; for SGTNLFRF: “inactive”.
Regarding VCMVEDFCCLPFDMLLYWLT, the amyloid nucleation score result was “inactive”.
As to TKIEVNS, the amyloid nucleation score result is “inactive”.
The same measure for DWSYEKWLACSGFYGRRRL: “inactive”; for RRSISGKVLFTRIQSYLLKF: -0.759 ± 1.
Take SRLCARMSSGKTIGYCNLFL: the amyloid nucleation score entry is “inactive”.
For the substance LDTSD, the amyloid nucleation score result is “inactive”.
For VNYDSLPVLRPGSEGGVLFN, the amyloid nucleation score entry was “inactive”.
GYGVCNNDKCVQDAPGQPVS showed an amyloid nucleation score of -0.357 ± 1.1.
Regarding VGQWYGFMFWLLLLIIQS, the amyloid nucleation score entry was “inactive”.
Take SRTAKSFDATWMITFYGWGP: the amyloid nucleation score entry is “inactive”.
NMYVNTSCIVYFE showed an amyloid nucleation score of 3 ± 0.058.
Regarding KNMWTGSFDVFRRWPISLKG, the amyloid nucleation score result was “inactive”.
As for FLYMSMPSLSMVQICYSQRG, the amyloid nucleation score was found to be 1.99 ± 0.07.
CYFQYGNWFHLEGRNRSRSN showed an amyloid nucleation score of 1.17 ± 0.19.
As for IIWAVRKGTPSSRRVTWAGK, the amyloid nucleation score entry was “inactive”.
As for FTVTCPGREANIYIFFRGGR, the amyloid nucleation score is 1.37 ± 0.13.
The same measure for CNYNGLESILR: “inactive”; for GFFLLNSYSNCMFCKLHTGT: 1.97 ± 0.082.
Consider VVVKKSVVDAWSAYYFRLFV, for which the amyloid nucleation score result was “inactive”.
Take TNANRIGMGYDMNNYSTHYR: the amyloid nucleation score entry is “inactive”.
For the substance IFSHSSPYNTPRK, the amyloid nucleation score result was “inactive”.
Turning to NILMAGDMHSRA, the amyloid nucleation score result was “inactive”.
The entry for VSDKHVYCMEGCMP is “inactive”; for IRRFIKNIVYTYGHLLLEAH it is “inactive”.
In turn, DFARGYGDNALVFYLYGLMY came in with an amyloid nucleation score of -0.684 ± 0.8.
In the case of YIINARPYVVVTDGLKDETA, the amyloid nucleation score entry was “inactive”.
As to YSNHLD, the amyloid nucleation score entry was “inactive”.
The substance INWAKHDWGFNYFSCSICWV showed an amyloid nucleation score of 1.39 ± 0.079.
As for RFSVNGNR, the amyloid nucleation score entry is “inactive”.
Turning to VESVRVLVINPNSDNQVLYL, the amyloid nucleation score entry is “inactive”.
Turning to IGGDSRHI, the amyloid nucleation score entry is “inactive”.
The entry for HIWVCLEVGVGKSILVLLLF is “inactive”; for VGSRAGYMRQLSVSACTRVL it is “inactive”.
On to NFGLFREVGLFIRLWIANAA, for which the amyloid nucleation score entry is “inactive”.
The same measure for ITQLFSSLRADYAAQYYLGV: “inactive”; for LSSETWRRLQIVSIHYGLVV: “inactive”.
For CRVPSLVIC, the amyloid nucleation score result was “inactive”.
Turning to CNYFVF, the amyloid nucleation score result is “inactive”.
For NAYSSLQWREIVSHIYQSCQ, the amyloid nucleation score result is “inactive”.
Regarding QIMILVCCQTGFWSERARRG, the amyloid nucleation score stood at 2.98 ± 0.058.
The same measure for FPRNVPG: “inactive”; for YGLFGCLTSVWACRGCYGVV: “inactive”; for CSPGRIFHNGK: “inactive”.
